Substitutions are numbered along the chain they refer to.
B1: ALT02M1-01: nucleotide sequence SEQ ID NO: 25 encoding ALT02M1, based on soybean codon usage bias (nucleic acid)
DNA: ATGGAGACTGATAACGTGGAACTCGCCCAATCTAAGAGAAAGGTGGTGCTGGCTGAACAAGGGTCATTTTACATAGGGGGTAGGACTGTTACTGGTCCTGGCAAGTTTGATCCATCCAAACCTGTGATACCCTACAGTAACGAAGGAGCAACATTCTATATTAACCAAATGTATGTTAACTTCCAGGCCCCAGTGAGACCTAGGGGACTTCCATTGGTTTTCTGGCATGGAGGTGGCTTGACTGGTCACATCTGGGAGTCTACACCTGACGGCAGACCCGGGTTTCAAACCCTCTTCGTTCAGGATAGGCATACCGTGTACACTATTGACCAACCTGGGAGAGGAAGGGGTAACATCCCAACTTTTAACGGACCTTTCGGACAGTTGGAGGAAGAGAGTATTGTTAACACTGTGACAGCCAATTCTTCAAAGGAAGGTGCCTGGGTGAGAGATAGGCTTGGCCCTGCTCCCGGGCAATTTTTCGAGAACTCTCAGTTTCCTAGAGGCTATGAAGACAATTACTTTAAGGAGATGGGATTCAGCCCATCTATATCCAGTGATGAAATTGTTGACGCTGTTGTGAAACTCGTGACCCATATTGGTCCTTGTGTTCTGGTGACTCACTCAGCATCCGGCGTTCTTGGGATGAGAGTGGCTACACACGCAAAGAATGTTAGGGGAATTGTGGCCTATGAACCAGCTACCTCAATCTTCCCCAAGGGAAAAGTTCCAGAGATACCACCTCTCGCTGATAAGAAAAGCCAAATCTTTCCCCCATTCGAAATACAGGAGTCTTACTTTAAGAAACTTGCCAAGATTCCAATCCAATTTGTTTTCGGAGATAACATCCCCAAGAATCCAAAATCAGCATATTGGTTCCTGGACTGGTGGAGAGTGACAAGATACGCACATAGTCTCAGCCTGGAGGCCATAAACAAATTGGGGGGACAAGCTTCCCTTTTGGATCTTCCTACTGCAGGATTGAGAGGTAATACACACTTTCCCTTCACCGATAGGAACAATGTTCAGGTGGCTTCTCTCCTGTCAGACTTTCTGGGTAAACACGGTCTGGATCAAAATGAGAGCAAACTCGCCGCCGCCCTGGAATGA
modifications: the ALT02M1-01 nucleotide sequence encoding the amino acid sequence corresponding to the herbicide tolerant protein ALT02M1 and based on the soybean codon usage bias
B2: ALT02M2-01: nucleotide sequence SEQ ID NO: 29 encoding ALT02M2, based on soybean codon usage bias (nucleic acid)
DNA: B1 DNA with C419G, C420A, T424G, C425T, T426A
modifications: the ALT02M2-01 nucleotide sequence encoding the amino acid sequence corresponding to the herbicide tolerant protein ALT02M2 and based on the soybean codon usage bias
B3: ALT02M3-01: nucleotide sequence SEQ ID NO: 33 encoding ALT02M3, based on soybean codon usage bias (nucleic acid)
DNA: B1 DNA with C131G, C132A, T133G, A134C, T424G, C425T, T426A, G436C, T438A
modifications: the ALT02M3-01 nucleotide sequence encoding the amino acid sequence corresponding to the herbicide tolerant protein ALT02M3 and based on the soybean codon usage bias
B4: ALT02-01: nucleotide sequence SEQ ID NO: 21 encoding ALT02, based on soybean codon usage bias (nucleic acid)
DNA: B1 DNA with C419G, C420A
modifications: the ALT02-01 nucleotide sequence encoding the amino acid sequence corresponding to the ALT02 and based on the soybean codon usage bias

What follows are molecules tested on soybean plants (assay: Herbicide tolerance of transgenic soybean T1 plants (spraying, damage degree)). Conditions: sprayed with tribenuron-methyl 144 g ai/ha, eight-fold field concentration.
Type: in vivo
Method: The degree of damage caused by the herbicide was measured for each plant according to the leaf curl degree and the growth point damage degree 3 days after spraying (3 DAT), 7 days after spraying (7 DAT), 14 days after spraying (14 DAT) and 21 days after spraying (21 DAT): the case where the leaves are flat as untreated plants and the growth points are intact is defined as having a damage degree of 0%; the case where veins are locally browned, new leaves are malformed and plant growth is slow is defined as having a damage degree of 50%; and the case where veins are purple, until the whole plant is dead and the growth points are browned and dry is defined as having a damage degree of 100%. The soybean plants into which the ALT02M1-01 nucleotide sequence was introduced were of three strains in total (S1, S2 and S3), the soybean plants into which the ALT02M2-01 nucleotide sequence was introduced were of three strains in total (S4, S5 and S6), the soybean plants into which the ALT02M3-01 nucleotide sequence was introduced were of three strains in total (S7, S8 and S9), the soybean plants into which the ALT02-01 nucleotide sequence was introduced were of three strains in total (S10, S11 and S12), the control soybean plants were of two strains in total (S13 and S14), and the wild-type soybean plants were of one strain in total (CK1); and 10-15 plants were selected from each strain and tested.

| Molecule | herbicide tolerance compared with soybean plants into which ALT02-01 was introduced | herbicide tolerance imparted to transgenic soybean plants |
| --- | --- | --- |
| B1 | significantly increased tolerance to benzenesulfonic acid | impart transgenic soybean plants with the tolerance to benzenesulfonic acid |
| B2 | significantly increased tolerance to benzenesulfonic acid | impart transgenic soybean plants with the tolerance to benzenesulfonic acid |
| B3 | significantly increased tolerance to benzenesulfonic acid | impart transgenic soybean plants with the tolerance to benzenesulfonic acid |
| B4 |  | impart transgenic soybean plants with the tolerance to benzenesulfonic acid |

Source: patent publication US12385058B2, “Herbicide tolerance protein, encoding gene thereof and use thereof” (Beijing Dabeinong Biotechnology Co., Ltd., priority 2018, dated 2025)
